Assay results as given in patent publication US20210292753A1.

Target: SAMHD1 (T592A), constitutively active SAM domain and HD domain-containing protein 1 (UniProt Q9Y3Z3)
Assay: cell-based or functional assay

Sequence of SAMHD1 (T592A), constitutively active SAM domain and HD domain-containing protein 1 (Q9Y3Z3 whole entry T592A, the tested form may be a part): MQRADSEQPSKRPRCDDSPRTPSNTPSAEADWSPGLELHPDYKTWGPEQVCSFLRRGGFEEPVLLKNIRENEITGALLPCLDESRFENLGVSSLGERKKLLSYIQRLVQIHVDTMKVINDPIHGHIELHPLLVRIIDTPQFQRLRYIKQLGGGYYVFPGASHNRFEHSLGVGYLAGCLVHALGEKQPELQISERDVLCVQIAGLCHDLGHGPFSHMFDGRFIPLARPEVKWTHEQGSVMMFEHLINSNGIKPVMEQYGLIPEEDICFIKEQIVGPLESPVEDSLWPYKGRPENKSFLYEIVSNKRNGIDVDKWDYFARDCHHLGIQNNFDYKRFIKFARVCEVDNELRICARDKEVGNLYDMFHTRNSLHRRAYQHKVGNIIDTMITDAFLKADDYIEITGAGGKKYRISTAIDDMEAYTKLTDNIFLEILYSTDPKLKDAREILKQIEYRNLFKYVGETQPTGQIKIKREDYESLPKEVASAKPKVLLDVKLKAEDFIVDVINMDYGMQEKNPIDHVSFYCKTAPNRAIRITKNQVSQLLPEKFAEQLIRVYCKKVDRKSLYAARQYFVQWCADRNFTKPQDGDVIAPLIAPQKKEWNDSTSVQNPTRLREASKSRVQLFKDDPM

Substance	editing efficiency, RW2I, mutation 2-nt from the nick, SAMHD1 (T592A) coexpressed [%]	editing efficiency, mutation 65-nt from the nick, relative to no SAMHD1^p- [%]
VPX^RH2-1 (variant of VPX from HIV-2 clinical isolate RH2-1) (from UniProt P20881 1-112)	64	
VPX^ROD (Vpx from the ROD HIV-2 isolate) (from UniProt P06939 1-112)		78
